Key:
[1] = target: T1, MMP1-003 peptide/HLA-A2 complex (on MMP1-003 peptide-pulsed T2 cells or HLA-A2+/MMP1+ tumor cells) (human); assay: flow cytometry on MMP1-003 peptide-pulsed T2 cells, mean of two experiments
T1 construct: whole, on cells; T2 cells were pulsed with 100 uM peptide for 15 h at 37 C; also called MMP1/HLA-A2; HLA-A2^MMP1-003

[2] = target: T2, human CD3 (on Jurkat cells or primary human T-cells) (human, UniProt P07766 23-207); assay: flow cytometry on human CD3+ Jurkat cells, on ice
T2 construct: whole, on cells; CD3 is a complex of several chains; also called Human CD3^+ Jurkat; Human CD3^+ primary T-cells

[3] = target: T3, cynomolgus CD3 (on HSC-F cells) (cynomolgus, UniProt Q95LI5 22-198); assay: flow cytometry on cynomolgus CD3+ HSC-F cells, on ice
T3 construct: whole, on cells; CD3 is a complex of several chains; also called Cyno CD3^+ HSC-F

[4] = target: T4, CD16A (FcgammaRIIIA) on primary human NK-cells (human, UniProt P08637 17-254); assay: flow cytometry on primary human NK-cells, on ice, one-site binding fit, mean of two experiments
T4 construct: whole, on cells; also called CD16^+ NK-cells; CD16A^+ cells

[5] = target: T1, MMP1-003 peptide/HLA-A2 complex (on …); assay: cell-based or functional assay
[6] = target: T1, MMP1-003 peptide/HLA-A2 complex (on …); assay: cell-based or functional assay; remark: listed apart in the source
[7] = target: T2, human CD3 (on Jurkat cells or primary …); assay: flow cytometry on human CD3+ primary T-cells, on ice, one-site binding fit, mean of 2 experiments
[8] = target: T1, MMP1-003 peptide/HLA-A2 complex (on …); assay: cell-based or functional assay; remark: listed apart in the source
[9] = target: T2, human CD3 (on Jurkat cells or primary …); assay: flow cytometry on human CD3+ Jurkat cells, on ice, one-site binding fit, mean of 2 experiments
[10] = target: T1, MMP1-003 peptide/HLA-A2 complex (on …); assay: flow cytometry on MMP1-003 peptide-pulsed T2 cells
[11] = target: T3, cynomolgus CD3 (on HSC-F cells); assay: flow cytometry on cynomolgus CD3+ HSC-F cells, on ice, one-site binding fit, mean of 2 experiments
[12] = target: T1, MMP1-003 peptide/HLA-A2 complex (on …); assay: cell-based or functional assay; remark: listed apart in the source
[13] = target: T5, HLA-A2 on non-pulsed T2 cells (no peptide added) (human); assay: flow cytometry on non-pulsed T2 cells, mean of two experiments
T5 construct: whole, on cells

T2 sequence (P07766 23-207): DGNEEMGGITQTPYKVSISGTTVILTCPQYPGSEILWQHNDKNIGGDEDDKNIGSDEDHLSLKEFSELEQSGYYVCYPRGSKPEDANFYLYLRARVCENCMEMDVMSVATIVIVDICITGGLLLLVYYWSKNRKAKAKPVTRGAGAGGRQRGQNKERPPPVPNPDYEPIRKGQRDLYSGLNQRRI
T4 sequence (P08637 17-254): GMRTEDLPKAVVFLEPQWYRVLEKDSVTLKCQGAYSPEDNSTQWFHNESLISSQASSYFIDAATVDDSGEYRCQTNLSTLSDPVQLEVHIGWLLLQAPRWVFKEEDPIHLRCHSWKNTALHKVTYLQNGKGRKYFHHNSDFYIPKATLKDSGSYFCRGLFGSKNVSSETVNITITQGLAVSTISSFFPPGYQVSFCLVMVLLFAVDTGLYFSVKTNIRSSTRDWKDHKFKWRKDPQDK
T3 sequence (Q95LI5 22-198): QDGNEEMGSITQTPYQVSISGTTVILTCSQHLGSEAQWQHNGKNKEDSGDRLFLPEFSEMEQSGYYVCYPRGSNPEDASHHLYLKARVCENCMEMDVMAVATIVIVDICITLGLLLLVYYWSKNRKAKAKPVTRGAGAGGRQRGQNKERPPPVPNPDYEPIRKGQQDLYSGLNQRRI

Row | Binder | Kd [1] [nM] | Kd [4] [nM] | Mean EC50 of target cell lysis, 4 h calcein-release assay, MMP1-003-pulsed T2 cells, human NK-cells E:T 5:1 [5] [nM] | Mean EC50 of target cell lysis, 4 h calcein-release assay, B-CPAP (HLA-A2+/MMP1+), human NK-cells E:T 5:1 [6] [nM] | Mean EC50 of target cell lysis, 4 h calcein-release assay, SW-982 (HLA-A2+/MMP1+), human NK-cells E:T 5:1 [6] [nM] | other results
1 | TandAbCD16A 1 (anti-HLA-A2^MMP1-003/CD16A tandem diabody, target domain A02, variant 2) (bispecific antibody, Non-covalent homodimer; Variant 2: VH(CD16A)-L1-VL(A02)-L2-VH(A02)-L3-VL(CD16A); C-terminal 6xHis tag) QVQLVQSGAEVKKPGESLKVSCKASGYTFTSYYMHWVRQAPGQGLEWMGAIEPMYGSTSYAQKFQGRVTMTRDTSTSTVYMELSSLRSEDTAVYYCARGSAYYYDFADYWGQGTLVTVSSGGSGGSGGSSYELTQPPSVSVSPGQTASITCSGDKLGDKYASWYQRKPGQSPVLLIYQDAKRPSGIPERFSGSNSGNTATLTISGTQAMDEADYYCQAWDSSTGVFGGGTKLTVLGGSGGSEVQLVESGGGVVQPGRSLRLSCAASGFTFSSYAMHWVRQAPGKGLEWVAVISYDGSNKYYADSVKGRFTISRDNSKNTLYLQMNSLRTEDTAVYYCARDGGYYHYGLDVWGQGTTVTVSSGGSGGSGGSSYVLTQPSSVSVAPGQTATISCGGHNIGSKNVHWYQQRPGQSPVLVIYQDNKRPSGIPERFSGSNSGNTATLTISGTQAMDEADYYCQVWDNYSVLFGGGTKLTVLAAAGSHHHHHH |  | 5.1 | 0.0147 | 2.61 | 4.29 | 
2 | TandAbCD3 1 (anti-HLA-A2^MMP1-003/CD3 tandem diabody, target domain B05) (bispecific antibody, Non-covalent homodimer of two identical polypeptides; Constructs carry a C-terminal 6xHis tag and an N-terminal signal peptide; also called TandAbCD3 1 T714; TandAb 1) DIQMTQSPSSLSASVGDRVTITCRSSTGAVTTSNYANWVQQKPGKAPKALIGGTNKRAPGVPSRFSGSLIGDKATLTISSLQPEDFATYYCALWYSNLWVFGQGTKVEIKGGSGGSQVQLVQSGAEAKKPGESLRISCRASGYMFSTFWIGWVRQMPGKGLEWVASIYPGDSNTIYSPSFQGQVTISADKSINTTYLQWSGLKASDTATYYCAKIRDGYSYDAFDLWGQGTMVTVSSGGSGQSALTQPASVSGSPGQSITISCTGTSSDVGGYNYVSWYQQHPGKAPKLMIYDVSNRPSGVSNRFSGSKSGNTASLTISGLQAEDEADYYCSSYTSSSTLAYVFGTGTKLTVLGGSGGSEVQLVESGGGLVQPGGSLRLSCAASGFTFSTYAMNWVRQAPGKGLEWVGRIRSKYNNYATYYADSVKDRFTISRDDSKNSLYLQMNSLKTEDTAVYYCARHGNFGNSYVSYFAYWGQGTLVTVSSAAAGSHHHHHH | 3 |  |  |  |  | Kd [7]: 1.7 nM; Mean EC50 of target cell lysis, 4 h calcein-release assay, B-CPAP (HLA-A2+/MMP1+), human T-cells E:T 25:1 [8]: 0.237 nM; Mean EC50 of target cell lysis, 4 h calcein-release assay, SW-982 (HLA-A2+/MMP1+), human T-cells E:T 25:1 [8]: 0.156 nM; Kd [9]: 1.1 nM; fold higher apparent affinity relative to the B05 single chain Fv (scFv) [10]: > 200 fold; Kd [11]: 1.3 nM; EC50 of target cell lysis, 4 h calcein-release cytotoxicity assay, MMP1-003-pulsed T2 cells, human T-cells E:T 25:1 [12]: 0.0007 nM
3 | TandAbCD16A 2 (anti-HLA-A2^MMP1-003/CD16A tandem diabody, target domain B05, variant 2) (bispecific antibody, Non-covalent homodimer; C-terminal 6xHis tag) QVQLVQSGAEVKKPGESLKVSCKASGYTFTSYYMHWVRQAPGQGLEWMGAIEPMYGSTSYAQKFQGRVTMTRDTSTSTVYMELSSLRSEDTAVYYCARGSAYYYDFADYWGQGTLVTVSSGGSGGSGGSQSALTQPASVSGSPGQSITISCTGTSSDVGGYNYVSWYQQHPGKAPKLMIYDVSNRPSGVSNRFSGSKSGNTASLTISGLQAEDEADYYCSSYTSSSTLAYVFGTGTKLTVLGGSGGSQVQLVQSGAEAKKPGESLRISCRASGYMFSTFWIGWVRQMPGKGLEWVASIYPGDSNTIYSPSFQGQVTISADKSINTTYLQWSGLKASDTATYYCAKIRDGYSYDAFDLWGQGTMVTVSSGGSGGSGGSSYVLTQPSSVSVAPGQTATISCGGHNIGSKNVHWYQQRPGQSPVLVIYQDNKRPSGIPERFSGSNSGNTATLTISGTQAMDEADYYCQVWDNYSVLFGGGTKLTVLAAAGSHHHHHH |  | 3.7 | 0.0209 | 1.69 | 2.86 | 
4 | TandAbCD3 2 (anti-HLA-A2^MMP1-003/CD3 tandem diabody, target domain A02) (bispecific antibody, Non-covalent homodimer; C-terminal 6xHis tag; also called TandAbCD3 2 T717; T717) DIQMTQSPSSLSASVGDRVTITCRSSTGAVTTSNYANWVQQKPGKAPKALIGGTNKRAPGVPSRFSGSLIGDKATLTISSLQPEDFATYYCALWYSNLWVFGQGTKVEIKGGSGGSEVQLVESGGGVVQPGRSLRLSCAASGFTFSSYAMHWVRQAPGKGLEWVAVISYDGSNKYYADSVKGRFTISRDNSKNTLYLQMNSLRTEDTAVYYCARDGGYYHYGLDVWGQGTTVTVSSGGSGSYELTQPPSVSVSPGQTASITCSGDKLGDKYASWYQRKPGQSPVLLIYQDAKRPSGIPERFSGSNSGNTATLTISGTQAMDEADYYCQAWDSSTGVFGGGTKLTVLGGSGGSEVQLVESGGGLVQPGGSLRLSCAASGFTFSTYAMNWVRQAPGKGLEWVGRIRSKYNNYATYYADSVKDRFTISRDDSKNSLYLQMNSLKTEDTAVYYCARHGNFGNSYVSYFAYWGQGTLVTVSSAAAGSHHHHHH | 39.2 |  |  |  |  | Kd [13]: > 500 nM; Kd [7]: 2.2 nM; Mean EC50 of target cell lysis, 4 h calcein-release assay, B-CPAP (HLA-A2+/MMP1+), human T-cells E:T 25:1 [8]: 0.0669 nM; Mean EC50 of target cell lysis, 4 h calcein-release assay, SW-982 (HLA-A2+/MMP1+), human T-cells E:T 25:1 [8]: 0.0302 nM; Kd [9]: 3.6 nM; fold higher apparent affinity than the corresponding scFv A02 [10]: > 2 fold; Kd [11]: 2.8 nM; EC50 of target cell lysis, 4 h calcein-release cytotoxicity assay, MMP1-003-pulsed T2 cells, human T-cells E:T 25:1 [12]: 0.0009 nM

Further lines, with some results ahead:

Row | Kd [1] [nM] | Kd [4] [nM] | Mean EC50 of target cell lysis, 4 h calcein-release assay, MMP1-003-pulsed T2 cells, human NK-cells E:T 5:1 [5] [nM] | Mean EC50 of target cell lysis, 4 h calcein-release assay, B-CPAP (HLA-A2+/MMP1+), human NK-cells E:T 5:1 [6] [nM] | Mean EC50 of target cell lysis, 4 h calcein-release assay, SW-982 (HLA-A2+/MMP1+), human NK-cells E:T 5:1 [6] [nM] | Binder | other results
5 | 108 |  |  |  |  | scFv A02 (anti-HLA-A2^MMP1-003 single chain Fv) (scFv, also called A02 scFv; scFv_203.S) scFv: EVQLVESGGGVVQPGRSLRLSCAASGFTFSSYAMHWVRQAPGKGLEWVAVISYDGSNKYYADSVKGRFTISRDNSKNTLYLQMNSLRTEDTAVYYCARDGGYYHYGLDVWGQGTTVTVSSGGSGGSGGSGGSGGSGGSSYELTQPPSVSVSPGQTASITCSGDKLGDKYASWYQRKPGQSPVLLIYQDAKRPSGIPERFSGSNSGNTATLTISGTQAMDEADYYCQAWDSSTGVFGGGTKLTVLAAAGSEQKLISEEDLNSHHHHHH | binding result [2]: no binding; binding result [3]: no binding
6 |  | 3.1 | 0.0057 | 0.996 | 1.16 | TandAbCD16A 3 (anti-HLA-A2^MMP1-003/CD16A tandem diabody, target domain A02, variant 4) (bispecific antibody, Non-covalent homodimer; Variant 4: VH(A02)-L1-VL(CD16A)-L2-VH(CD16A)-L3-VL(A02); C-terminal 6xHis tag) EVQLVESGGGVVQPGRSLRLSCAASGFTFSSYAMHWVRQAPGKGLEWVAVISYDGSNKYYADSVKGRFTISRDNSKNTLYLQMNSLRTEDTAVYYCARDGGYYHYGLDVWGQGTTVTVSSGGSGGSGGSSYVLTQPSSVSVAPGQTATISCGGHNIGSKNVHWYQQRPGQSPVLVIYQDNKRPSGIPERFSGSNSGNTATLTISGTQAMDEADYYCQVWDNYSVLFGGGTKLTVLGGSGGSQVQLVQSGAEVKKPGESLKVSCKASGYTFTSYYMHWVRQAPGQGLEWMGAIEPMYGSTSYAQKFQGRVTMTRDTSTSTVYMELSSLRSEDTAVYYCARGSAYYYDFADYWGQGTLVTVSSGGSGGSGGSSYELTQPPSVSVSPGQTASITCSGDKLGDKYASWYQRKPGQSPVLLIYQDAKRPSGIPERFSGSNSGNTATLTISGTQAMDEADYYCQAWDSSTGVFGGGTKLTVLAAAGSHHHHHH | 
7 | 616 |  |  |  |  | scFv B05 (anti-HLA-A2^MMP1-003 single chain Fv) (scFv, also called B05 scFv; scFv_202.S) scFv: QVQLVQSGAEAKKPGESLRISCRASGYMFSTFWIGWVRQMPGKGLEWVASIYPGDSNTIYSPSFQGQVTISADKSINTTYLQWSGLKASDTATYYCAKIRDGYSYDAFDLWGQGTMVTVSSGGSGGSGGSGGSGGSGGSQSALTQPASVSGSPGQSITISCTGTSSDVGGYNYVSWYQQHPGKAPKLMIYDVSNRPSGVSNRFSGSKSGNTASLTISGLQAEDEADYYCSSYTSSSTLAYVFGTGTKLTVLAAAGSEQKLISEEDLNSHHHHHH | binding result [2]: no binding; binding result [3]: no binding
8 |  | 5.3 | 0.0088 | 4.8 | 4.67 | TandAbCD16A 4 (anti-HLA-A2^MMP1-003/CD16A tandem diabody, target domain B05, variant 4) (bispecific antibody, Non-covalent homodimer; C-terminal 6xHis tag) QVQLVQSGAEAKKPGESLRISCRASGYMFSTFWIGWVRQMPGKGLEWVASIYPGDSNTIYSPSFQGQVTISADKSINTTYLQWSGLKASDTATYYCAKIRDGYSYDAFDLWGQGTMVTVSSGGSGGSGGSSYVLTQPSSVSVAPGQTATISCGGHNIGSKNVHWYQQRPGQSPVLVIYQDNKRPSGIPERFSGSNSGNTATLTISGTQAMDEADYYCQVWDNYSVLFGGGTKLTVLGGSGGSQVQLVQSGAEVKKPGESLKVSCKASGYTFTSYYMHWVRQAPGQGLEWMGAIEPMYGSTSYAQKFQGRVTMTRDTSTSTVYMELSSLRSEDTAVYYCARGSAYYYDFADYWGQGTLVTVSSGGSGGSGGSQSALTQPASVSGSPGQSITISCTGTSSDVGGYNYVSWYQQHPGKAPKLMIYDVSNRPSGVSNRFSGSKSGNTASLTISGLQAEDEADYYCSSYTSSSTLAYVFGTGTKLTVLAAAGSHHHHHH | 

From EP3366704A1 (Affimed GmbH, dated 2018)
